Laboratory results from PMC8967715 (2022).

What was measured:
Assay in all cases: FACS
[1] = molecular target: BtKY72 RBD, yeast-displayed (bat sarbecovirus BtKY72)
[2] = molecular target: WIV1
[3] = molecular target: SARS-CoV-2 RBD (Wuhan-Hu-1, Asn331–Thr531), yeast-displayed (SARS-CoV-2 (Wuhan-Hu-1), UniProt P0DTC2 331-531)

B1: R. affinis 787 ACE2 residues 19–615 with C-terminal human IgG1 Fc (Genscript) (Fc fusion)
chain: STTEDRAKIFLDNFNREAEELSYQSSLASWEYNTNISDENVQKMDEAGAKWSAFYEEQSKLAKNYPLEEIQTVPVKLQLQILQQSGSPVLSEDKSKRLNSILNAMSTIYSTGKVCKPNNPQECFLLEPGLDNIMGTSKDYNERLWAWEGWRAEVGKQLRPLYEEYVVLKNEMARGYHYEDYGDYWRRDYETEESSGSGYSRDQLMKDVDRIFTEIKPLYEHLHAYVRTKLMDTYPFHISPTGCLPAHLLGDMWGRFWTNLYPLTVPFGQKPNIDVTDAMVNQGWDANRIFKEAEKFFVSVGLPNMTEGFWNNSMLTEPGDGRKVVCHPTAWDLGKGDFRIKMCTKVTMEDFLTAHHEMGHIQYDMAYATQPYLLRNGANEGFHEAVGEVMSLSVATPKHLKTMGLLSPDFLEDNETEINFLLKQALNIVGTLPFTYMLEKWRWMVFRGEIPKEEWMKKWWEMKRDLVGVVEPVPHDETYCDPASLFHVANDYSFIRYYTRTIFEFQFHEALCRIAQHDGPLHKCDISNSTDAGKKLHQMLSVGKSQPWTVTLKDIVDSRNMDVGPLLRYFEPLYTWLQEQNRKSYVGWNTDWSPYSD
- Kd [1]: 0.1 µM

B2: Mouse (Mus musculus) ACE2 (residues 18–740) with His tag and human IgG1 Fc (Fc fusion)
chain: QSLTEENAKTFLNNFNQEAEDLSYQSSLASWNYNTNITEENAQKMSEAAAKWSAFYEEQSKTAQSFSLQEIQTPIIKRQLQALQQSGSSALSADKNKQLNTILNTMSTIYSTGKVCNPKNPQECLLLEPGLDEIMATSTDYNSRLWAWEGWRAEVGKQLRPLYEEYVVLKNEMARANNYNDYGDYWRGDYEAEGADGYNYNRNQLIEDVERTFAEIKPLYEHLHAYVRRKLMDTYPSYISPTGCLPAHLLGDMWGRFWTNLYPLTVPFAQKPNIDVTDAMMNQGWDAERIFQEAEKFFVSVGLPHMTQGFWANSMLTEPADGRKVVCHPTAWDLGHGDFRIKMCTKVTMDNFLTAHHEMGHIQYDMAYARQPFLLRNGANEGFHEAVGEIMSLSAATPKHLKSIGLLPSDFQEDSETEINFLLKQALTIVGTLPFTYMLEKWRWMVFRGEIPKEQWMKKWWEMKREIVGVVEPLPHDETYCDPASLFHVSNDYSFIRYYTRTIYQFQFQEALCQAAKYNGSLHKCDISNSTEAGQKLLKMLSLGNSEPWTKALENVVGARNMDVKPLLNYFQPLFDWLKEQNRNSFVGWNTEWSPYADQSIKVRISLKSALGANAYEWTNNEMFLFRSSVAYAMRKYFSIIKNQTVPFLEEDVRVSDLKPRVSFYFFVTSPQNVSDVIPRSEVEDAIRMSRGRINDVFGLNDNSLEFLGIHPTLEPPYQPPVT
- Kd [2]: ~3.98 µM
- Kd [3]: > 10 µM
